Results taken from patent publication US20190345535.
“And” between values parts separate entries of the source, which are not always exact repeats. Equal entries are not always repeated.

B1: human plasmin (Sigma) (protein)
chain: KVYLSECKTGNGKNYRGTMSKTKNGITCQKWSSTSPHRPRFSPATHPSEGLEENYCRNPDNDPQGPWCYTTDPEKRYDYCDILECEEECMHCSGENYDGKISKTMSGLECQAWDSQSPHAHGYIPSKFPNKNLKKNYCRNPDRELRPWCFTTDPNKRWELCDIPRCTTPPPSSGPTYQCLKGTGENYRGNVAVTVSGHTCQHWSAQTPHTHNRTPENFPCKNLDENYCRNPDGKRAPWCHTTNSQVRWEYCKIPSCDSSPVSTEQLAPTAPPELTPVVQDCYHGDGQSYRGTSSTTTTGKKCQSWSSMTPHRHQKTPENYPNAGLTMNYCRNPDADKGPWCFTTDPSVRWEYCNLKKCSGTEASVVAPPPVVLLPDVETPSEEDCMFGNGKGYRGKRATTVTGTPCQDWAAQEPHRHSIFTPETNPRAGLEKNYCRNPDGDVGGPWCYTTNPRKLYDYCDVPQCAAPSFDCGKPQVEPKKCPGRVVGGCVAHPHSWPWQVSLRTRFGMHFCGGTLISPEWVLTAAHCLEKSPRPSSYKVILGAHQEVNLEPHVQEIEVSRLFLEPTRKDIALLKLSSPAVITDKVIPACLPSPNYVVADRTECFITGWGETQGTFGAGLLKEAQLPVIENKVCNRYEFLNGRVQSTELCAGHLAGGTDSCQGDSGGPLVCFEKDKYILQGVTSWGLGCARPNKPGVYVRVSRFVTWIEGVMRNN
B2: bovine plasmin (Sigma) (protein)
chain: RIYLLECKTGNGQTYRGTTAETKSGVTCQKWSATSPHVPKFSPEKFPLAGLEENYCRNPDNDENGPWCYTTDPDKRYDYCDIPECEDKCMHCSGENYEGKIAKTMSGRDCQAWDSQSPHAHGYIPSKFPNKNLKMNYCRNPDGEPRPWCFTTDPQKRWEFCDIPRCTTPPPSSGPKYQCLKGTGKNYGGTVAVTESGHTCQRWSEQTPHKHNRTPENFPCKNLEENYCRNPNGEKAPWCYTTNSEVRWEYCTIPSCESSPLSTERMDVPVPPEQTPVPQDCYHGNGQSYRGTSSTTITGRKCQSWSSMTPHRHLKTPENYPNAGLTMNYCRNPDADKSPWCYTTDPRVRWEFCNLKKCSETPEQVPAAPQAPGVENPPEADCMIGTGKSYRGKKATTVAGVPCQEWAAQEPHQHSIFTPETNPQSGLERNYCRNPDGDVNGPWCYTMNPRKPFDYCDVPQCESSFDCGKPKVEPKKCSGRIVGGCVSKPHSWPWQVSLRRSSRHFCGGTLISPKWVLTAAHCLDNILALSFYKVILGAHNEKVREQSVQEIPVSRLFREPSQADIALLKLSRPAIITKEVIPACLPPPNYMVAARTECYITGWGETQGTFGEGLLKEAHLPVIENKVCNRNEYLDGRVKPTELCAGHLIGGTDSCQGDSGGPLVCFEKDKYILQGVTSWGLGCARPNKPGVYVRVSPYVPWIEETMRRN

Experiments:
[1] = biological target: GFP^2-plas1-RLuc2 fusion protein (BRET^2 plasmin sensor)
[2] = biological target: GFP^2-Pflu3-RLuc2 fusion protein (Pflu sensor 3)
[3] = biological target: GFP^2-Pflu-H2-RLuc2 fusion protein
[4] = biological target: GFP^2-Pflu-H4-RLuc2 fusion protein
[5] = biological target: GFP^2-Pflu-H3-RLuc2 fusion protein
[6] = biological target: GFP^2-Pflu-H1-RLuc2 fusion protein

Protein	Linear response, BRET^2, raw milk, one-step pre-treatment protocol [1]	Linear response, BRET^2, raw milk, one-step pre-treatment with low power sonication [1]	Linear range (10%-90% BRET^2 response), 50% full fat UHT milk [2]	Plasmin response (%), BRET^2, 1 nM Bovine plasmin in UHT milk [3] [%]	Plasmin response (%), BRET^2, 1 nM Bovine plasmin in UHT milk [4] [%]	Plasmin response (%), BRET^2, 1 nM Bovine plasmin in UHT milk [5] [%]	Plasmin response (%), BRET^2, 1 nM Bovine plasmin in UHT milk [6] [%]
B1	between 1.6 nM (90%) and 128 nM (10%) plasmin	linear between 5.5 nM (90%) and 107 nM (10%)	452 nM and 3620 nM				
B2				7.9	6.3	0.9	4.9
